Laboratory results published in paper PMC6441080, “Coordination of capsule assembly and cell wall biosynthesis in Staphylococcus aureus” (Nature Communications, 2019).

Tested on: CC(=O)N[C@H]1[C@@H](OP(=O)(O)OP(=O)(O)OC[C@H]2O[C@@H](n3ccc(=O)[nH]c3=O)[C@H](O)[C@@H]2O)O[C@H](C)[C@H](O)[C@@H]1O
Experiment: purified protein
Conditions: Mg2+

## CapM (Staphylococcus aureus subsp. aureus USA300)
  Km: 2,309 ± 311.8 µM
